Reference: patent publication US20170233490A1 (Hoffmann-La Roche, published 2017)

T1: TtSlyDcas
T1 construct: scaffold without hairpin insert, negative control
T1 chain: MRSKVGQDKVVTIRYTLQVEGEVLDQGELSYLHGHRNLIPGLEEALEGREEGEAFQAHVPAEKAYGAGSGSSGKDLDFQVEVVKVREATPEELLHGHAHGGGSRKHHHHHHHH

T2: TgSlyDΔIF
T2 construct: scaffold without hairpin insert, negative control
T2 chain: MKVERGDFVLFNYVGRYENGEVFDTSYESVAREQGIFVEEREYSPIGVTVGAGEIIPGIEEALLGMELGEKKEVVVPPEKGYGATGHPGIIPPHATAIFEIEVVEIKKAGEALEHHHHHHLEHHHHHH

T3: TtSlyDcas-Her3
T3 chain: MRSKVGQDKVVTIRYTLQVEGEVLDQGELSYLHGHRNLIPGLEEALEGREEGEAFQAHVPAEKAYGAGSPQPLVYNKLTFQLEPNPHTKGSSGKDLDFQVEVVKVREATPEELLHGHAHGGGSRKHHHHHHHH

T4: TgSlyDcys-Her3
T4 chain: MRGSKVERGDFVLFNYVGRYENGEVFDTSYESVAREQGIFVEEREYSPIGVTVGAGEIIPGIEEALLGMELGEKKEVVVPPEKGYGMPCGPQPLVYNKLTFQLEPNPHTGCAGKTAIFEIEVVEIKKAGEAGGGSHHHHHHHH

T5: human HER4 Extracellular Domain (ECD) (human, UniProt Q15303 26-651)
T5 construct: also called Her4 ECD; HER4-ECD
T5 sequence: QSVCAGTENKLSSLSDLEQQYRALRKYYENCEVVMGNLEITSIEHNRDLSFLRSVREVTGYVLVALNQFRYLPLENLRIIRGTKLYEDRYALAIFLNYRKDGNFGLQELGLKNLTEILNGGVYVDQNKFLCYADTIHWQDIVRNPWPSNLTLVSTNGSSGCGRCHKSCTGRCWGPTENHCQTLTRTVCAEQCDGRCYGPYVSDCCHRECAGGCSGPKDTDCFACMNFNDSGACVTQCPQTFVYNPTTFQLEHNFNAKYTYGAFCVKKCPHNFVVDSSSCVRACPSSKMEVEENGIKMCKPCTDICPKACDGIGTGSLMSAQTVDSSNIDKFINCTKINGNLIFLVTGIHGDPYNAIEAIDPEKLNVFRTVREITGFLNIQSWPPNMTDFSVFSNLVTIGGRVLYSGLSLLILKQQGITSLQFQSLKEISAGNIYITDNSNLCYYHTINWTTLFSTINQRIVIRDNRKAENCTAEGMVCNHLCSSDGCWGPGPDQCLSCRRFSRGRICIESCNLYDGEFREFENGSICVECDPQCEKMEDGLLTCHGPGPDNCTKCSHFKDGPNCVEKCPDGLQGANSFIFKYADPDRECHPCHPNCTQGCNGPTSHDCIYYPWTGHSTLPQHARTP

T6: TgSlyDser-Her3
T6 chain: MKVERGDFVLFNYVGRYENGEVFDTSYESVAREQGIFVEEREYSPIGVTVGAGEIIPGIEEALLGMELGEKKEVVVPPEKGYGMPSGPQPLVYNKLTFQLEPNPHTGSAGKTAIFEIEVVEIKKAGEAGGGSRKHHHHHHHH

T7: TtSlyDcys-Her3
T7 chain: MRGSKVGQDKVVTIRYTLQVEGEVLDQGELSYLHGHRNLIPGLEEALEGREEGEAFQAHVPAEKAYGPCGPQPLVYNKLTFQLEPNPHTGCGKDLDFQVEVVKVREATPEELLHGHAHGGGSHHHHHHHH


Assays:
[1] = biological target: T8, human HER1 (full length, on cells) (human, UniProt P00533 25-1210); assay: IHC (Ventana Benchmark XT) on formalin-fixed, paraffin-embedded HEK293 cells transiently transfected with full length HER1
T8 construct: HEK293 cells transfected with full length HER1, fixed and embedded (IHC); also called EGFR
Procedure: (§1) All selected clones were tested for reactivity and specificity in IHC. […] After an additional fixation in formalin overnight the Agarose blocks were embedded in paraffin. Untransfected HEK293 cells were used as negative controls and treated accordingly to the transfected cells. After paraffin embedding 3 μm thin sections were prepared using a microtome. The sections were mounted on glass microscopy slides and dried for 2 h. All further steps of the immunohistochemical staining procedure were carried out using a Ventana Benchmark XT. The slides were dewaxed and antigen retrieval was performed by applying heat for 1 hour. For antigen retrieval the Ventana buffer CC1 was used. The antibodies were used at a concentration of 1 μg/ml. For the detection of bound antibody the Ventana UltraView detection kit was used.

TtSlyDcas [2] = biological target: T1, TtSlyDcas; assay: ELISA, coated antigen 0.5 µg/ml, hybridoma supernatant
Procedure: (§2) For the ELISA the screening an antigen down format was used. […] Hybridoma Supernatant was added to the plates and incubated for 1 h at room temperature. Bound antibody was detected with a HRP-labeled F(ab′)₂ goat anti-mouse Fcγ (Dianova) and ABTS (Roche) was used as a HRP-substrate.

TgSlyDΔIF [3] = biological target: T2, TgSlyDΔIF; assay: as above
Procedure: as §2

[4] = biological target: T9, human HER2 Extracellular Domain (ECD) (human, UniProt P04626 23-652); assay: ELISA, coated antigen, hybridoma supernatant
T9 construct: human recombinant, 69.6 kDa; also called Her2 ECD; HER2_ECD
Procedure: as §2

[5] = biological target: T10, human HER1 Extracellular Domain (ECD) (human, UniProt P00533 25-645); assay: ELISA, coated antigen, hybridoma supernatant
T10 construct: also called Her1 ECD; HER1-ECD
Procedure: as §2

[6] = biological target: T11, human HER2 (full length, on cells) (human, UniProt P04626 23-1255); assay: IHC (Ventana Benchmark XT) on formalin-fixed, paraffin-embedded HEK293 cells transiently transfected with full length HER2
T11 construct: HEK293 cells transfected with full length HER2 (IHC); MCF-7 cells (co-immunoprecipitation)
Procedure: as §1

[7] = biological target: T9, human HER2 Extracellular Domain (ECD); assay: ELISA, coated antigen
Procedure: as §2
(§3) As negative controls the scaffold proteins TtSlyDcas and TgSlyDΔIF were used.

TtSlyDcas-Her3 = biological target: T3, TtSlyDcas-Her3; assay: ELISA, coated antigen
Procedure: as §2, §3

TtSlyDcas [8] = biological target: T1, TtSlyDcas; assay: ELISA, coated antigen
Procedure: as §2, §3

[9] = biological target: T12, human HER3 Extracellular Domain (ECD) (human, UniProt P21860 20-643); assay: ELISA, coated antigen
T12 construct: human recombinant, 68 kDa; 'closed' conformation without ligand; also called Her3 ECD; Her-3 ECD
Procedure: as §2, §3

TgSlyDcys-Her3 = biological target: T4, TgSlyDcys-Her3; assay: ELISA, coated antigen
Procedure: as §2, §3

[10] = biological target: T5, human HER4 Extracellular Domain (ECD); assay: ELISA, coated antigen
Procedure: as §2, §3

[11] = biological target: T10, human HER1 Extracellular Domain (ECD); assay: ELISA, coated antigen
Procedure: as §2, §3

TgSlyDser-Her3 = biological target: T6, TgSlyDser-Her3; assay: ELISA, coated antigen
Procedure: as §2, §3

TtSlyDcys-Her3 = biological target: T7, TtSlyDcys-Her3; assay: ELISA, coated antigen
Procedure: as §2, §3

TgSlyDΔIF [12] = biological target: T2, TgSlyDΔIF; assay: ELISA, coated antigen
Procedure: as §2, §3

[13] = biological target: T12, human HER3 Extracellular Domain (ECD); assay: SPR (Biacore) sensorgram overlay; the legend gives 100 nM, antibody * Her-3 ECD interaction without Heregulin; buffer reference (curve 5) stays at 0 RU
[14] = biological target: T5, human HER4 Extracellular Domain (ECD); assay: stated in the epitope binning example
HER3 ECD-HRG complex = biological target: T13, HER3 ECD-HRG complex (human, UniProt P21860 20-643); assay: SPR (Biacore B3000, 25 °C), antibody captured by RAM-Fcγ; 90 nM Heregulin*Her-3 ECD complex injected
T13 construct: HER3 ECD preincubated with a 3- to 6-fold molar excess of Heregulin ('open' conformation); biotinylated Her3-ECD in the ribosome display; also called HER3-ECD/HRG1β
Procedure: A CMS series sensor was mounted into the system and was normalized in HBS-ET buffer (10 mM HEPES pH 7.4, 150 mM NaCl, 3 mM EDTA, 0.005% w/v Tween 20) according to the manufacturer's instructions. The sample buffer was the system buffer supplemented with 1 mg/ml CMD (Carboxymethyldextran). The system operated at 25° C. 10000 RU RAM-Fcγ (relative units of Fcγ-fragment Rabbit Anti-Mouse IgG/Jackson Laboratories) were immobilized according to the manufacturer's instructions using EDC/NHS chemistry on all flow cells. The sensor was deactivated using 1M ethanolamine. Analytes in solution were injected at 100 μl/min at different concentration steps of 0 nM, 1.1 nM, 3.7 nM, 11.1 nM, 33.1 nM and 90 nM for 2 min. The dissociation was monitored for 5 min. Acidic regeneration of the sensor surface was achieved using three consecutive injections of 10 mM Glycine pH 1.7 at 30 μl/min for 60 sec. Kinetic data were evaluated according to a Langmuir fit.

| binding result [1] | binding result (TtSlyDcas [2]) | binding result (TgSlyDΔIF [3]) | binding result [4] | binding result [5] | binding result [6] | ELISA signal [7] | ELISA signal (TtSlyDcas-Her3) | ELISA signal (TtSlyDcas [8]) | ELISA signal [9] | ELISA signal (TgSlyDcys-Her3) | ELISA signal [10] | ELISA signal [11] | ELISA signal (TgSlyDser-Her3) | ELISA signal (TtSlyDcys-Her3) | ELISA signal (TgSlyDΔIF [12]) | binding result [13] | binding result [14] | binding result (HER3 ECD-HRG complex) | Binder |
| --- | --- | --- | --- | --- | --- | --- | --- | --- | --- | --- | --- | --- | --- | --- | --- | --- | --- | --- | --- |
| no binding (tested: 1 µg/ml) | no binding | no binding | no binding | no binding | no binding (tested: 1 µg/ml) | 0.064 | 1.85 | 0.04 | 3.17 | 1.5 | 3.19 | 0.067 | 1.83 | 1.46 | 0.033 |  |  |  | M-15-04 (antibody, V domains shown, murine hybridoma clone) VH: QVQLQQSGAELAKPGASVKMSCKTSGYTLTDYWIHWVKQRPGQGLEWIGYINPYTGYTESNQKFKDKATLTADKSSNTAYIQLSSLTSEDSAVYYCARPYYYGDYWGQGTTLTVSS VL: QIVLTQSPAIMSASPGERVTITCSASSSVSYMHWFQQKPGTSPKLLIYSTSNLASGVPARFSGSGSGTSYSLTISRMEAEDAATYYCQQRSSYPFTFGSGTKLEIK |
|  |  |  |  |  |  |  |  |  |  |  |  |  |  |  |  | binds | no binding | binds | anti-HER3 antibody M-08-11 (antibody, V domains shown, also called M-011; <Her3> M-08-11) VH: QAYLQQSGAELMRPGASVRMSCQASGYTFTSYTIHWLKQTPRQGLEWIGAIYPRNGDFSYNQKFKDKASLTVDTSSSTAYMHLSSLTSEDSAVYFCARTINYGDWFAYWGQGTLVTVSA VL: DIQMIQSPASLFVSEGETVIITCRASENIYSNLAWYHQKKGKSPQVLVYAAIKLADGVPLRFSGSGSGTQFSLKINSLQSEDFGSYYCQHFWGPPYTFGSGTNLEIK |
